In patent US20200171174A1 (Astellas, published 2020):

Target: T1, human cancer-specific MUC1 (human, UniProt P15941 24-1255)
T1 construct: whole, on cells; Endogenous MUC1 with cancer-specific incomplete O-glycosylation on cancer cells; also called Mucin 1; human MUC1
Assay: Cell ELISA on formalin-fixed T-47D cells, HRP anti-human Ig kappa, luminescence
Experimental: Specifically, breast cancer cell line T-47D cells (purchasable from ATCC; HTB-133) expressing human cancer-specific MUC1 were inoculated at 0.75×10⁴ cells per well to a 96-well ELISA plate coated with collagen I, and cultured overnight. […] Then, a horseradish peroxidase (HRP)-labeled goat anti-human Igκ antibody (Southern Biotechnology Associates, Inc.) was reacted as a secondary antibody. ECL Prime Western Blotting Detection Reagent (GE Healthcare Japan Corp.) was added thereto for luminescence, and the degree of the luminescence was examined.

Binder | binding activity relative to 1B2 Fab [times]
P10-2 Fab (Fab, V domains shown, heavy chain N-terminal glutamine modified into pyroglutamic acid in a great majority of purified antibodies, expressed in Expi293F cells, purified on KappaSelect; also called anti-human MUC1 antibody Fab fragment P10-2) VH: QVQLVQSGAEVKKPGASVKVSCKASGYTFTNYGLSWVRQAPGQGLEWMGENHPGSGIIYHNEKFRGRVTLTADRSTSTAYMELSSLRSEDTAVYYCARSSGTRGFDYWGQGTLVTVSS VL: DVVMTQTPLSLSVTPGQPASISCRSSQSIVHSNGNTYLEWYLQKPGQSPQLLIYRVSNRFSGVPDRFSGSGSGTDFTLKISRVEAEDVGVYYCFQGSHGPWTFGQGTKLEIKR | ≥ 10
P10-1 Fab (Fab, V domains shown, expressed in Expi293F cells, purified on KappaSelect; also called anti-human MUC1 antibody Fab fragment P10-1) VH: QVQLVQSGAEVKKPGASVKVSCKASGYTFTNYGLSWVRQAPGQGLEWMGENHPGSGIIYHNEKFRGRVTLTADRSTSTAYMELSSLRSEDTAVYYCARSSGTRGFAYWGQGTLVTVSS VL: DVVMTQTPLSLSVTPGQPASISCRSSQSIVHSNGNTYLEWYLQKPGQSPQLLIYRVSNRFSGVPDRFSGSGSGTDFTLKISRVEAEDVGVYYCFQGSHGPWTFGQGTKLEIKR | ≥ 10
